Substitutions are numbered along the chain they refer to. Names and notes keep the numbering of the source.

Assay [1] deals with T1, His-tagged human VEGFR-3 (residues 30-326) (human, UniProt P35916 30-326).
T1 construct: Vascular endothelial growth factor receptor 3 (VEGFR-3), human, residues 30-326 (extracellular Ig domains 1-3); The primers fit P30 to I326; the reverse primer has no stop codon, so vector residues and a second His tag may follow at the C-terminus (my surmise); also called Wild-type VEGFR-3; extracellular domains 1, 2 and 3
T1 sequence (looked up): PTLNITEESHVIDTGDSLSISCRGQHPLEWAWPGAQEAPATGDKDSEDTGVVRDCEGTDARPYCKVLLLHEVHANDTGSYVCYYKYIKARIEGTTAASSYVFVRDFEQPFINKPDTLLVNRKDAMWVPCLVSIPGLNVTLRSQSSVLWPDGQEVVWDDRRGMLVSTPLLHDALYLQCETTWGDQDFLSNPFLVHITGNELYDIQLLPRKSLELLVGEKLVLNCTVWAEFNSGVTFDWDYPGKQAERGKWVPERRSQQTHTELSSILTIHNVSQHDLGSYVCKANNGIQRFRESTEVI
Put plainly: SPR; VEGFR-3 immobilised on a CM5 chip by amine coupling (2,300 response units); Biacore T100, 25°C; running buffer 50 mM HEPES (pH 7.7), 50 mM NaCl or 50 mM Tris-HCl (7.82), 50 mM NaCl; VEGF-D or mutant injected at 0.125, 0.25, 0.5, 1 uM, 10 ul/min. To be noted: both partners purified.

The target in assay [2] is T2, His-tagged VEGFR-3 (residues 30-326) (human, UniProt P35916 30-326).
T2 construct: human VEGFR-3, residues 30-326 (extracellular domains 1, 2 and 3); Cloned in pET-28a; In the functional rows it stands for the VEGFR-3 of MDA-MB-231 cells; also called His-VEGFR-3; extracellular domains 1, 2, and 3; source: for SEC co-lysed with His-tagged VEGF-D cells and purified together on Ni-NTA
T2 sequence (looked up): T1 sequence (looked up)
Briefly: pull-down; 50 ug GST-tagged VEGF-D or mutant on Glutathione Sepharose 4 Fast Flow beads, 50 ug His-VEGFR-3 in 1X PBS, on ice overnight; eluted with 30 mM glutathione; Western blot with anti-His and anti-GST. The note with it: both partners purified. Background: In western blotting, separated proteins are transferred to a membrane and probed.

For assay [3], the target named is T2, His-tagged VEGFR-3 (residues 30-326). Put plainly: cell-based or functional assay.
The target is the same in assay [4]. Briefly: SPR; VEGFR-3 immobilised on a CM5 chip by amine coupling (2,300 response units); VEGF-D or mutant injected at 0.125, 0.25, 0.5 and 1 uM, 10 ul/min; Biacore T100, 25 °C; 50 mM HEPES (pH 7.7), 50 mM NaCl or 50 mM Tris-HCl (7.82), 50 mM NaCl. The note with it: both partners purified.
Assay [5] has the same target. Put plainly: SEC; His-tagged VEGF-D and His-tagged VEGFR-3 cells co-lysed, purified together on Ni-NTA, incubated 24 h at 4 °C; Superdex 200 10/300 GL, 50 mM Tris-HCl (pH 7.82), 200 mM NaCl, 0.1% glycerol, sample 17 mg/ml, 0.4 ml/min; fractions by SDS-PAGE. The note with it: partners not purified.

B1: His-tagged wild-type human VEGF-D (residues 89-205) (ligand, UniProt O43915 89-205, looked up)
chain: FAATFYDIETLKVIDEEWQRTQCSPRETCVEVASELGKSTNTFFKPPCVNVFRCGGCCNEESLICMNTSTSYISKQLFEISVPLTSVPELVPVKVANHTGCKCLPTAPRHPYSIIRR
notes: Vascular endothelial growth factor D (VEGF-D), human, residues 89-205 (major mature form); Cloned in pET-28a; also called Wild-type VEGF-D; major form
By Kd is commonly meant the concentration at which binding is half-saturated. High values mean lower affinity, low ones higher affinity. The term koff denotes a measure of how fast the partners let go of each other. Low readings indicate slow dissociation, high ones fast dissociation. As a reminder, the kon is the second-order rate constant of association. Take B1: in assay [1], the Kd was 268 nM, the koff came to 0.00115 s⁻¹ and the kon turned out to be 4310 M⁻¹ s⁻¹.

B2: GST-tagged VEGF-D (residues 89-205) I102A (ligand, human, UniProt O43915 89-205, looked up)
chain: B1 chain with I14A
notes: human VEGF-D, residues 89-205, I102A; Cloned in pGEX-4T-1
For B2, in assay [2], the binding result is given as “binds”.

B3: His-tagged VEGF-D (residues 89-205), wild type (ligand, human, UniProt O43915 89-205, looked up)
chain: B1 chain
notes: human VEGF-D, residues 89-205 (major mature form); Cloned in pET-28a; also called wild-type VEGF-D; mature VEGF-D; source: for SEC co-lysed with His-tagged VEGFR-3 cells and purified together on Ni-NTA
A word on the stoichiometry N: it is the number of molecules, sites or subunits per partner or assembly. For the molecule B3, in assay [3], the “MTT cell viability of MDA-MB-231 cells, 0-600 ng VEGF-D, 24 h; EC50” value stood at 238 ng. Binding in assay [4] was put at a Kd of 270 nM. In addition, the “stoichiometry N” value in assay [5] amounted to 1.

B4: GST-tagged VEGF-D (residues 89-205) E105A (ligand, human, UniProt O43915 89-205, looked up)
chain: B1 chain with E17A
notes: human VEGF-D, residues 89-205, E105A; Cloned in pGEX-4T-1
For the molecule B4, the binding result in assay [2] was “binds”.

B5: His-tagged VEGF-D (residues 89-205) D103A/Q110A (ligand, human, UniProt O43915 89-205, looked up)
chain: B1 chain with D15A, Q22A
notes: human VEGF-D, residues 89-205, D103A and Q110A; also called D103A/Q110A mutant; double mutated form of VEGF-D; source: E. coli BL21 (DE3), purified
Take B5: the affinity in assay [4], expressed as Kd, was 530 nM.

B6: His-tagged VEGF-D (residues 89-205) I102A/E105A (ligand, human, UniProt O43915 89-205, looked up)
chain: B1 chain with I14A, E17A
notes: Vascular endothelial growth factor D (VEGF-D), human, residues 89-205, double mutant I102A/E105A; same limits as Dm1 (see its note on the primers); source: E. coli BL21 (DE3), purified
For the molecule B6, in assay [1], binding was put at a Kd of 956 nM, the koff came to 0.0015 s⁻¹ and the kon stood at 1570 M⁻¹ s⁻¹.

B7: His-tagged VEGF-D (residues 89-205) I102A/E105A (ligand, human, UniProt O43915 89-205, looked up)
chain: B1 chain with I14A, E17A
notes: human VEGF-D, residues 89-205, I102A and E105A; also called double mutated form of VEGF-D; source: E. coli BL21 (DE3), purified
In assay [4], B7 showed a Kd of 960 nM.

B8: His-tagged VEGF-D (residues 89-205) D103A/Q110A (ligand, human, UniProt O43915 89-205, looked up)
chain: B1 chain with D15A, Q22A
notes: Vascular endothelial growth factor D (VEGF-D), human, residues 89-205, double mutant D103A/Q110A; same limits as Dm1 (see its note on the primers); source: E. coli BL21 (DE3), purified
As for B8, in assay [1], the Kd amounted to 533 nM, the koff came to 0.00103 s⁻¹ and the association rate constant (kon) is 1940 M⁻¹ s⁻¹.

The values above are taken from publication PMC11729338, “Molecular Characterization and Interaction between Human VEGF-D and VEGFR-3” (Journal of Microbiology and Biotechnology, 2024).
